Test results as given in patent US20250270280A1.

How the values were obtained:
[1] = molecular target: PA4C7L/H2-D^b (mouse; human)
[2] = molecular target: PA4C7K/H2-D^b (mouse; human)
[3] = molecular target: PA4C7A/H2-D^b (mouse; human)
[4] = molecular target: PA4C/H2-D^b (PA peptide with cysteine at position 4 presented by H2-D^b) (mouse; human)
[5] = molecular target: PA/H2-D^b (influenza Polymerase Acidic peptide … presented by H2-D^b) (mouse; human)
[6] = molecular target: PA4C7L/H2-D^b (mouse; human); remark: listed apart in the source
[7] = molecular target: PA4C7K/H2-D^b (mouse; human); remark: listed apart in the source
[8] = molecular target: PA4C/H2-D^b (PA peptide with cysteine at position 4 presented by H2-D^b) (mouse; human); remark: listed apart in the source
[9] = molecular target: PA/H2-D^b (influenza Polymerase Acidic peptide … presented by H2-D^b) (mouse; human); remark: listed apart in the source
[10] = molecular target: PA4C7A/H2-D^b (mouse; human); remark: listed apart in the source

6218 TCR expressed on cells
IL-2 in supernatant (ELISA), 5KC T cells with CD8αβ and the TCR + DC2.4 cells + graded peptide: EC50 [left graph] [1]: > 50000 nM
IL-2 in supernatant (ELISA), 5KC T cells with CD8αβ and the TCR + DC2.4 cells + graded peptide: EC50 [left graph] [2]: > 50000 nM
IL-2 in supernatant (ELISA), 5KC T cells with CD8αβ and the TCR + DC2.4 cells + graded peptide: EC50 [left graph] [3]: > 50000 nM
IL-2 in supernatant (ELISA), 5KC T cells with CD8αβ and the TCR + DC2.4 cells + graded peptide: EC50 [panel PA4C] [4]: 49 nM
IL-2 in supernatant (ELISA), 5KC T cells with CD8αβ and the TCR + DC2.4 cells + graded peptide: EC50 [panel PA] [5]: 50 nM
tetramer MFI / TCRβ MFI, normalized to 6218 TCR-PA/H2-D^b [6]: 0.03
tetramer MFI / TCRβ MFI, normalized to 6218 TCR-PA/H2-D^b [7]: 0.33
tetramer MFI / TCRβ MFI, normalized to 6218 TCR-PA/H2-D^b [8]: 1.03
tetramer MFI / TCRβ MFI, normalized to 6218 TCR-PA/H2-D^b [9]: 1
tetramer MFI / TCRβ MFI, normalized to 6218 TCR-PA/H2-D^b [10]: 0.16
